No end group written: not given here.
What was measured:
hCPD = biological target: T1, hCPD (Homo sapiens, UniProt O75976); experiment: Ki determination, tight-binding inhibition of metallocarboxypeptidase; type: biochemical; settings: NI: No inhibitory activity detected for the [I]0 range from 1 nM to 1 mM
T1 sequence (O75976 32-1380): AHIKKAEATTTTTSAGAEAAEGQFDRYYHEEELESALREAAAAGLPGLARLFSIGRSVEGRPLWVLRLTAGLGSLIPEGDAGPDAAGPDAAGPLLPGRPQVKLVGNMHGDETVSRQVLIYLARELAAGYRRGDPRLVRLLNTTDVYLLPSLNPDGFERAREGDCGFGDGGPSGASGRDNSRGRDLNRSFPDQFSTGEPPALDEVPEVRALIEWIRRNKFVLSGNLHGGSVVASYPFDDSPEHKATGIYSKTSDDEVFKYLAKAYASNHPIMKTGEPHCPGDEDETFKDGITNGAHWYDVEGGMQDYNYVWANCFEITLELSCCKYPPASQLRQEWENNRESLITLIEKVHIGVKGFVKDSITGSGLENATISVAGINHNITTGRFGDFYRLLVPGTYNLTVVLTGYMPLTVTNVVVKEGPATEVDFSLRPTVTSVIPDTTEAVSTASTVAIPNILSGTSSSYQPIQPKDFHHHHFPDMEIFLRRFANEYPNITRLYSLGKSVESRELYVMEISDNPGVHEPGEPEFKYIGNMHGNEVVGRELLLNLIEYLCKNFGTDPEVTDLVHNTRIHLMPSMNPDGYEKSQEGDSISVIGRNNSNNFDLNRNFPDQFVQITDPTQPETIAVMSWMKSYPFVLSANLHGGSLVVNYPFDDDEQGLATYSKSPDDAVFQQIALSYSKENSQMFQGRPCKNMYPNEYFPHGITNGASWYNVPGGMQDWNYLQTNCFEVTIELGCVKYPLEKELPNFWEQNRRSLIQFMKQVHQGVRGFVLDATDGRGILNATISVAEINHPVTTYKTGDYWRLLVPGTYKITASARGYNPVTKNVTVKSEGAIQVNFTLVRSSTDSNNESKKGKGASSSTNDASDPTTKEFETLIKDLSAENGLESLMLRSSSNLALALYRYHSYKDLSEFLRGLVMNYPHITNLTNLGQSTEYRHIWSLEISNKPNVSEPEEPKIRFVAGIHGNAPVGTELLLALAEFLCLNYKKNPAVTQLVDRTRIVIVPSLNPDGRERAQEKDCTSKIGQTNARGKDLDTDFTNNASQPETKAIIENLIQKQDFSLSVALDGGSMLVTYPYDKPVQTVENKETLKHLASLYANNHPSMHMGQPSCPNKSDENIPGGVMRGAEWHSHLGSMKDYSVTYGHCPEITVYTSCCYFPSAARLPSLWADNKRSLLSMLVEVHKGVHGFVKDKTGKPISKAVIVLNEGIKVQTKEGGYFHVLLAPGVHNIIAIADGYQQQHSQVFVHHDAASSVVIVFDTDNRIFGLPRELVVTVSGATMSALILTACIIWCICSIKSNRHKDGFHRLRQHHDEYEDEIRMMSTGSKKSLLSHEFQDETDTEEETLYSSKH
Protocol: (§1) Inhibitory activities against CPA- and CPB-type forms (bovine and human variants of CPA1, CPA2, CPA4, CPB1, and TAFI) were assayed for all extracts, subject to the experimental conditions that enzyme (E), substrate (S) and inhibitor (I) concentrations as well as the [I]/[E] ratio and preincubation time followed the requirements for tight-binding inhibitor assays. Similar approaches were followed to measure the activities of proteases of different catalytic types, like pepsin, papain, trypsin and subtilisin [45, 46, 47, 48]. All assays were performed in triplicate at 25 °C in a multiplexed manner. For 96-well assays an iEMS spectrophotometer reader/dispenser FM (Labsystems, Finland) was used with a final reaction volume of 250 μL. For cuvette assays, a Cary 400 Bio spectrophotometer (Varian Inc., Palo Alto, CA, USA) spectrophotometer was used with a final reaction volume of 1 ml. The reactions were followed at 5 s intervals for 5 min and recorded as initial velocities. In the protease inhibition assays, mixtures of activity buffer, biological sample and enzyme were preincubated at 25 °C for 10min, before substrate addition. The assay conditions were as follows: for CPA-like enzymes, 7.0nM CPA, 0.1mM AAFP substrate in 20mM Tris-HCl pH 7.5, 500mMNaCl, 1% v/v dimethyl sulfoxide (DMSO), 0.05% w/v BRIJ-35 was used. For CPB-like enzymes, CPB 3.0nM CPB, 0.1mM AAFA substrate and activity buffer of 20 mM Tris-HCl pH [50].
(§2) The Ki values of natural and recombinant NvCI against bCPA1, hCPA1, hCPA2, rat CPA3, hCPA4, hCPB1, bTAFI, hTAFI, hCPD and hCPZ were determined by measuring the enzymatic residual activity (Vi/V0 = a) at different inhibitor concentrations and using a fixed enzyme and substrate concentrations as described above, where vi and v0 are the fraction of enzymatic activity in the presence and absence of inhibitor, respectively, in terms of initial velocities. The determination of Ki values was carried out on equilibrium conditions ([E0]/Ki ≤ 10), using a previously determined preincubation time of 15 min, required to establish enzyme-inhibitor equilibrium. Working temperature was 37 °C. The best estimates of Ki values were obtained by fitting the experimental data to the equation for tight-binding inhibitors by non-linear regression using the GraphPad Prisma 5 software (GraphPad Software, Inc., San Diego, CA, USA) at p < 0.05. The real Ki values against each of these A/B-type MCPs were calculated according to the equation described by Morrison and Copeland [19, 20].

pCPB = biological target: T2, pCPB (Sus scrofa, UniProt P09955); experiment: as above; type: biochemical; settings: tight-binding equation fit, equilibrium conditions; substrate AAFA 0.1mM; preincubation 15 min; 37 °C; means (n = 3) ± SD
T2 sequence (P09955 111-416): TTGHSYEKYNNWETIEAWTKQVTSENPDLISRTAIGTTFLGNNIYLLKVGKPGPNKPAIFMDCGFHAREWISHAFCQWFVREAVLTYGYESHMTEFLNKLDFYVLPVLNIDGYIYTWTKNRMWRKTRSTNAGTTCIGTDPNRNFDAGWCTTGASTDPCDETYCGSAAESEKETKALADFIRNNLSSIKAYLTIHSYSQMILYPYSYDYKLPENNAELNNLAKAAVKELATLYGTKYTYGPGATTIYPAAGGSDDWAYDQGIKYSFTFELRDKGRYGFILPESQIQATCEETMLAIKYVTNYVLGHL
Protocol: as §1, §2

## NvCI: 53-residue, three-disulphide proteinaceous metallocarboxypeptidase inhibitor from the marine snail Nerita versicolor; major isoform; UniProt P86912 (FHVPDDRPCINPGRCPLVPDATCTFVCKAADNDFGYECQHVWTFEGQRVGCYA; disulfide (positions not given here); also: three disulphides, pairing not given here; UniProt P86912 1-53, looked up)
hCPD
  Ki: > 1000 µM
pCPB
  Ki: 0.00065 ± 1.22e-05 µM

— article PMC6780499, “Characterization, Recombinant Production and Structure-Function Analysis of NvCI, A Picomolar Metallocarboxypeptidase Inhibitor from the Marine Snail Nerita versicolor” (Marine Drugs, 2019)
